We go through 4 proteins from US20160327558.

Series [1] has as its target T1, FLAG-A20, P21580.
T1 chain: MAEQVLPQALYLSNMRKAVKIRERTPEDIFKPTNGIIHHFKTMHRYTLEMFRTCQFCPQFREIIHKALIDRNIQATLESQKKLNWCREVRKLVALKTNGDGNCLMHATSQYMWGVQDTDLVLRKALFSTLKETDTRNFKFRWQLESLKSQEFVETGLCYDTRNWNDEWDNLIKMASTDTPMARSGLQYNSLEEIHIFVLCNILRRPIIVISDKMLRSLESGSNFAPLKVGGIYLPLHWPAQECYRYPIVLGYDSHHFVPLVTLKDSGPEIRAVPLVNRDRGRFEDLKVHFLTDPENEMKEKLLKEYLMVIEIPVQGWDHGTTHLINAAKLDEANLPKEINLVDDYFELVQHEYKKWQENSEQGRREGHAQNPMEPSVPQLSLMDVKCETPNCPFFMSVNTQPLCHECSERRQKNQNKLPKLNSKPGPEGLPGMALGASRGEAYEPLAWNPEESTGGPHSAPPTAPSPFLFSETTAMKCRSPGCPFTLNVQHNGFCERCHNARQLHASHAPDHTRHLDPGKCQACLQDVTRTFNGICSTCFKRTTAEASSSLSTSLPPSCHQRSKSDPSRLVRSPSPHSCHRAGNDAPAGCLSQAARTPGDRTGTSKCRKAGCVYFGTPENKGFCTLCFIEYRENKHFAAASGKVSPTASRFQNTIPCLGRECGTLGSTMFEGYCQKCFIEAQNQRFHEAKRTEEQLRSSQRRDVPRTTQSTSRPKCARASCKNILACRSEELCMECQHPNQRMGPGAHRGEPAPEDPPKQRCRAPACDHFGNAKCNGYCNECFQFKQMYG

For series [2], the target named is T2, probe 5 (FITC-LRSR-AOMK).
T2 chain: LRSR

Series [3] concerns the target T3, z-VRPR-FMK (not fully specified).
T3 chain: VRPR

Substitutions are numbered along the chain they refer to. Numbers in names are those of the source.

B1: FLAG-MALT1 wt (MALT1 Isoform B, overexpressed in Jurkat T cells) (protein)
chain: SLLGDPLQALPPSAAPTGPLLAPPAGATLNRLREPLLRRLSELLDQAPEGRGWRRLAELAGSRGRLRLSCLDLEQCSLKVLEPEGSPSLCLLKLMGEKGCTVTELSDFLQAMEHTEVLQLLSPPGIKITVNPESKAVLAGQFVKLCCRATGHPFVQYQWFKMNKEIPNGNTSELIFNAVHVKDAGFYVCRVNNNFTFEFSQWSQLDVCDIPESFQRSVDGVSESKLQICVEPTSQKLMPGSTLVLQCVAVGSPIPHYQWFKNELPLTHETKKLYMVPYVDLEHQGTYWCHVYNDRDSQDSKKVEIIIDELNNLGHPDNKEQTTDQPLAKDKVALLIGNMNYREHPKLKAPLVDVYELTNLLRQLDFKVVSLLDLTEYEMRNAVDEFLLLLDKGVYGLLYYAGHGYENFGNSFMVPVDAPNPYRSENCLCVQNILKLMQEKETGLNVFLLDMCRKRNDYDDTIPILDALKVTANIVFGYATCQGAEAFEIQHSGLANGIFMKFLKDRLLEDKKITVLLDEVAEDMGKCHLTKGKQALEIRSSLSEKRALTDPIQGTEYSAESLVRNLQWAKAHELPESMCLKFDCGVQIQLGFAAEFSNVMIIYTSIVYKPPEIIMCDAYVTDFPLDLDIDPKDANKGTPEETGSYLVSKDLPKHCLYTRLSSLQKLKEHLVFTVCLSYQYSGLEDTVEDKQEVNVGKPLIAKLDMHRGLGRKTCFQTCLMSNGPYQSSAATSGGAGHYHSLQDPFHGVYHSHPGNPSNVTPADSCHCSRTPDAFISSFAHHASCHFSRSNVPVETTDEIPFSFSDRLRISEK
Consider B1, for which the “MALT1 cleavage of A20, analyzed by western blot” value in series [1] is on record as “only wt MALT1 is capable of cleaving its substrates”.

B2: FLAG-MALT1 active site mutant C464A (C453A in Isoform B) (protein)
chain: B1 chain with C452A
For B2, the “MALT1 cleavage of A20, analyzed by western blot” value in series [1] was “only wt MALT1 is capable of cleaving its substrates (the mutant does not cleave)”.

B3: recombinant Caspase-8 (protein)
chain: SESQTLDKVYQMKSKPRGYCLIINNHNFAKAREKVPKLHSIRDRNGTHLDAGALTTTFEELHFEIKPHDDCTVEQIYEILKIYQLMDHSNMDCFICCILSHGDKGIIYGTDGQEAPIYELTSQFTGLKCPSLAGKPKVFFIQACQGDNYQKGIPVETDSEEQPYLEMDLSSPQTRYIPDEADFLLGMATVNNCVSYRNPAEGTWYIQSLCQSLRERCPRGDDILTILTEVNYEVSNKDDKKNMGKQMPQPTFTLRKKLVFPSD
With B3, the “in vitro protease activity measurements (DEVD-AMC cleavage)” value in series [2] was “As expected, Caspase 8 activity was not affected by the diagnostic inhibitors of MALT1 of the present invention”.

B4: MALT1 (in vitro cleavage assay of FIG. 3C) (protein)
chain: MSLLGDPLQALPPSAAPTGPLLAPPAGATLNRLREPLLRRLSELLDQAPEGRGWRRLAELAGSRGRLRLSCLDLEQCSLKVLEPEGSPSLCLLKLMGEKGCTVTELSDFLQAMEHTEVLQLLSPPGIKITVNPESKAVLAGQFVKLCCRATGHPFVQYQWFKMNKEIPNGNTSELIFNAVHVKDAGFYVCRVNNNFTFEFSQWSQLDVCDIPESFQRSVDGVSESKLQICVEPTSQKLMPGSTLVLQCVAVGSPIPHYQWFKNELPLTHETKKLYMVPYVDLEHQGTYWCHVYNDRDSQDSKKVEIIIDELNNLGHPDNKEQTTDQPLAKDKVALLIGNMNYREHPKLKAPLVDVYELTNLLRQLDFKVVSLLDLTEYEMRNAVDEFLLLLDKGVYGLLYYAGHGYENFGNSFMVPVDAPNPYRSENCLCVQNILKLMQEKETGLNVFLLDMCRKRNDYDDTIPILDALKVTANIVFGYATCQGAEAFEIQHSGLANGIFMKFLKDRLLEDKKITVLLDEVAEDMGKCHLTKGKQALEIRSSLSEKRALTDPIQGTEYSAESLVRNLQWAKAHELPESMCLKFDCGVQIQLGFAAEFSNVMIIYTSIVYKPPEIIMCDAYVTDFPLDLDIDPKDANKGTPEETGSYLVSKDLPKHCLYTRLSSLQKLKEHLVFTVCLSYQYSGLEDTVEDKQEVNVGKPLIAKLDMHRGLGRKTCFQTCLMSNGPYQSSAATSGGAGHYHSLQDPFHGVYHSHPGNPSNVTPADSCHCSRTPDAFISSFAHHASCHFSRSNVPVETTDEIPFSFSDRLRISEK
As for B4, the “in vitro protease activity measurements (cleavage of fluorescent substrates)” value in series [3] is “probe 5 and also z-VRPR-FMK did not only inhibit MALT1”; in series [2] it was “probe 5 and also z-VRPR-FMK did not only inhibit MALT1”.
